In article PMC5807433, “PP5 (PPP5C) is a phosphatase of Dvl2” (Scientific Reports, 2018):

Biological target: T1, FLAG-Dvl2 (full-length human Dishevelled 2) (human, UniProt O14641 1-736)
T1 construct: Dishevelled 2 (Dvl2), human, full length; also called FLAG-tagged Dvl2; full-length Dvl2; source: HEK293T, transfected (pCS2+), in lysate; also purified from transfected HEK293T with FLAG M2 beads and eluted with FLAG peptide; not shown: FLAG, N-terminal, kept
T1 sequence (looked up): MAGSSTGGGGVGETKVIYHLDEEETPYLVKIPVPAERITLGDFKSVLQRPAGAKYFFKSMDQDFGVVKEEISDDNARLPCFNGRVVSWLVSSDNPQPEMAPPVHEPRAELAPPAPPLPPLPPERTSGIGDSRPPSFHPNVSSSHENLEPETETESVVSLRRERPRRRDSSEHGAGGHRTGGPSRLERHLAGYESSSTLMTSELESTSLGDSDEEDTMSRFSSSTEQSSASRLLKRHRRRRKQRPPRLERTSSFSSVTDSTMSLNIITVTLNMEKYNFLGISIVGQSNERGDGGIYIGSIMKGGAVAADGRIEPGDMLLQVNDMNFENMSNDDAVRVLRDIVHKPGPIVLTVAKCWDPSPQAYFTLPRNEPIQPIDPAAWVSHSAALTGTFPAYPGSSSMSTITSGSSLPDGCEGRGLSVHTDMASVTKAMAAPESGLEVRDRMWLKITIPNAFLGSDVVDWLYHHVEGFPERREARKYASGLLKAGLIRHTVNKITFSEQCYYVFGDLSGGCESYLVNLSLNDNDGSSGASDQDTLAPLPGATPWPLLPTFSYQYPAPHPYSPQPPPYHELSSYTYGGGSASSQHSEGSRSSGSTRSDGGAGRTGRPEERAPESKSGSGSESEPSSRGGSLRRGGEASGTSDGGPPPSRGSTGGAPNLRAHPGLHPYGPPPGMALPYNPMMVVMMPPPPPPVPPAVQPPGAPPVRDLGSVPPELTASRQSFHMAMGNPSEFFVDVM
Test: pull-down; GST pull-down: FLAG-Dvl2 purified from transfected HEK293T incubated with PP5 protein purified from E. coli and Glutathione Sepharose 4B beads; GST as negative control
Conditions: both partners purified

B1: GST-PP5 (wild type) (enzyme, human, UniProt P53041 1-499, looked up)
chain: MAMAEGERTECAEPPRDEPPADGALKRAEELKTQANDYFKAKDYENAIKFYSQAIELNPSNAIYYGNRSLAYLRTECYGYALGDATRAIELDKKYIKGYYRRAASNMALGKFRAALRDYETVVKVKPHDKDAKMKYQECNKIVKQKAFERAIAGDEHKRSVVDSLDIESMTIEDEYSGPKLEDGKVTISFMKELMQWYKDQKKLHRKCAYQILVQVKEVLSKLSTLVETTLKETEKITVCGDTHGQFYDLLNIFELNGLPSETNPYIFNGDFVDRGSFSVEVILTLFGFKLLYPDHFHLLRGNHETDNMNQIYGFEGEVKAKYTAQMYELFSEVFEWLPLAQCINGKVLIMHGGLFSEDGVTLDDIRKIERNRQPPDSGPMCDLLWSDPQPQNGRSISKRGVSCQFGPDVTKAFLEENNLDYIIRSHEVKAEGYEVAHGGRCVTVFSAPNYCDQMGNKASYIHLQGSDLRPQFHQFTAVPHPNVKPMAYANTLLQLGMM
notes: Protein phosphatase 5 (PP5, PPP5C), wild type; Probably full length; also called PP5 protein purified from E. coli; bacterially expressed and purified PP5; source: E. coli BL21 (pPGH vector, IPTG), purified with Glutathione Sepharose 4B beads; not shown: GST, N-terminal, kept
Q: Does B1 bind?
A: Result: binds
